Test results as given in patent US20090068158A1, “THYMIDYLATE KINASE MUTANTS AND USES THEREOF” (priority 2005, published 2009).
Positions count from the first letter of the chain named. Names may count otherwise. “Also recorded” adds a separate entry of the source.

Key:
[1] = tested on: Jurkat cells; assay: HPLC determination of intracellular AZT metabolites in cells treated with 100 μM AZT; format: cell-based, human
Protocol: The cells were cultured in the presence of 100 μM AZT for 36 hrs. 10^7 cells were homogenized by sonication in 100 μl of 5% (w/v) trichloroacetic acid. The supernatant is collected after homogenate had been centrifuged at 10,000×g for 15 min at 4° C. The trichloroacetic acid was removed by extraction with an equal volume of 20% tri-n-octylamine in pentane. The neutralized aqueous fraction is directly injected into HPLC. Separation of AZT and its metabolites was performed on a C18 column (Waters) with a mobile phase composed of 0.2 M phosphate buffer containing 4 mM tetrabutylammonium hydrogen sulfate (pH 7.5) and acetonitrile in the ratio of 97:3 (v/v). The mobile phase was pumped at a flow rate of 1.5 ml/min. The UV absorbance was monitored at 270 nm. Five million cell equivalents were injected and analyzed in triplicate.
Cells were cultured in the presence of 100 μM AZT for 36 h. 10^7 cells were homogenized by sonication in 100 μl of 5% (w/v) trichloroacetic acid (TCA). The supernatant was collected after centrifugation at 10,000×g for 15 min at 4° C. TCA was removed by extraction with an equal volume of 20% tri-n-octylamine in pentane. The neutralized aqueous fraction was directly injected into the HPLC machine (Waters, Milford. MA). Separation of AZT and its metabolites were performed on a C18 column (Waters), with a mobile phase composed of 0.2 M phosphate buffer containing 4 mM tetrabutylammonium hydrogen sulfate (pH 7.5) and acetonitrile in the ratio of 97:3 (v/v)^48 at a flow rate of 1.5 ml/min. The UV absorbance was monitored at 270 nm. Standards for each AZT-metabolite (AZT-MP, AZT-DP, and AZT-TP) were purchased from Moravek Biochemicals (Brea, Calif.). Five million cell equivalents were injected and analyzed in triplicate.

[2] = tested on: Jurkat cells; assay: AZT sensitivity of LV-tmpk-transduced Jurkat cells (MTT cell viability assay); format: cell-based, human; settings: for cell viability upon addition of AZT (in words), Example 15: clonal Jurkat cells, AZT up to 1 mM, 4 days
Protocol: Transduced Jurkat cells and the single-cell clones were seeded in 96 well plates (2×10^5/well) in 200 μl of medium containing increasing concentrations of AZT (0, 1, 10 and 100 μM). The medium was changed daily. […] Data are expressed as mean±standard error of mean (SEM).
To examine the AZT-mediated celikilling activity of tmpk cDNA, each of transduced cells were incubated with the increasing concentration of AZT. After incubating both non-transduced and LV-transduced cells with AZT for […], cell viability was determined using MTT assay (FIG. 4A).
Transduced Jurkat cells and single-cell clones were seeded in 96 well plates (2×10^5 cells/well) in 200 μl of the RPMI medium described above with increasing concentrations of AZT (0, 0.1, 1, 10, 100 μM, and 1 mM). The medium was changed daily. After 4 days of culture, cell viability was determined by using Cell Titer 96 Aqueous One Solution Cell Proliferation Assay kit (Promega, Madison, Wis.).

[3] = tested on: Jurkat cells; assay: AZT sensitivity in LV-TMPK (Lentigen) transduced Jurkat cells; format: cell-based, human; settings: increasing concentrations of AZT
Protocol: The function of tmpk was tested by assessing sensitivity to AZT (FIG. 21).

[4] = tested on: Jurkat cells; assay: Induction of apoptosis by 100 μM AZT in LV-tmpk-transduced Jurkat cells (annexin V staining); format: cell-based, human; settings: 4 days; for early apoptotic cell index in response to AZT treatment: transduced Jurkat cells, n=3
Protocol: Cells were seeded in 24 well plates (10^6/well) in 1 ml of medium with or without 100 μM of AZT. The medium was changed daily. After 4 days of culture, induction of apoptosis in the cells were analyzed by annexin-V staining according to the manufacturer's protocol (Annexin V-APC: BD Pharmingen). **, P<0.01, n=3. Data are expressed as mean±SEM.
(§1) For evaluation of the induction of apoptosis, treated Jurkat clonal cells were stained with Annexin V. Briefly, cells were seeded in 24 well plates (10^6 cells/well) in 1 ml of medium with or without 100 μM AZT. After 4 days of culture, Annexin V staining was performed according to the manufacturer's protocol (Annexin V-APC: BD Pharmingen). For testing whether AZT-mediated cell killing depends on the cellular proliferation, indirubin-3′-monoxime (final concentration 5 μM, Sigma-Aldrich, St. Louis, Mo.) was added simultaneously with 100 μM AZT to the culture.
(§2) To simplify comparative studies a relative apoptotic index was calculated. Here data obtained was normalized by dividing results from AZT treated cells in each condition by the results obtained without added AZT. Values were reported as fold increases. Statistical significance between groups was calculated by ANOVA.

[5] = tested on: K562 cells; assay: Growth of transduced K562 cells xenografted into AZT-treated NOD/SCID mice; format: in vivo; settings: for tumor size / final tumor volume: transduced K562 cells sc in NOD/SCID mice, four and a half weeks past injection
Protocol: Female or male 5 to 8-week-old non-obese diabetic/severe combined immunodeficient (NOD/SCID) mice were purchased from Jackson Laboratory. Lentivirally-transduced or non-transduced K562 cells (20×10^6 cells) were resuspended in 0.5 mL Dulbecco's phosphate-buffered saline (D-PBS) per inoculum and injected subcutaneously (SC) into the right flanks of recipient mice. AZT treatment, which was administered intraperitoneally (IP) at the dose of 2.5 mg/kg/day, was started one day after injection and conducted for 14 days. In vivo tumor cell growth was monitored by measuring tumor size for up to 32 days post-inoculations. All experimental data were reproduced at least twice.
Transduced K562 cells were affinity-purified by MACS using magnetic beads conjugated with an anti-human CD19 monoclonal antibody (Miltenyi Biotec Inc., Auburn, Calif.). The purity of the cells following isolation was evaluated by FACS Calibur. Non-obese diabetic/severe combined immunodeficiency (NOD/SCID) mice (5 to 8-weeks old, purchased from Jackson Laboratories, Bar Harbor, Me.) were maintained at the Animal Resource Centre at the Princess Margaret Hospital (Toronto, ON, Canada). The entire animal experimental procedure followed a protocol approved by the Animal Care Committee of the UHN. Experimental groups consisted of male and female NOD/SCID mice injected with 2×10^7 K562 cells (resuspended in 0.5 mL D-PBS; Oxoid, Basingstoke, England) that were either lentivirally-transduced (n=10 for each LV) or non-transduced (NT) (n=10). Injections were performed subcutaneously (sc) into the dorsal right flanks of recipient mice as previously described^49. One day after injection of the cells, half of the mice in each group (n=5) began receiving daily AZT injections, administered intraperitoneally (ip) at a dose of 2.5 mg/kg/day for 14 days. Tumor growth was measured by caliper and calculated as 0.5×length×width^2 (in mm^3) for up to […].

[6] = tested on: Jurkat cells; assay: AZT-induced apoptosis/cell killing under cell cycle arrest with indirubin-3'-oxime; format: cell-based, human
Protocol: Cells were seeded in 24-well plates (10^6/well) in 1 ml of medium containing 0 (shown in AZT (−) in figure) or 100 μM of AZT (shown in AZT (+)) with or without 5 μM indirubin-3′-oxime (Figure (B) and (A), respectively). The medium was refreshed daily. After 2 days of culture, induction of apoptosis by AZT was analyzed by annexin V staining according to the manufacturer's protocol described. **, P<0.01, n=3. Data are expressed as mean±SEM.
as §1, §2

[7] = tested on: Jurkat cells; assay: Loss of mitochondrial membrane potential after AZT (JC-1 staining, flow cytometry); format: cell-based, human; settings: transduced Jurkat cells, 100 μM AZT
Protocol: Cells (10^6 cells) treated with (shown (+) in figure) or without (−) 100 μM AZT were stained with JC-1 for […] at 37° C., and then were analyzed by flow cytometry. ***, P<0.001, n=3.
(§3) Transduced cells […] were treated with 100 μM AZT for 4 days or left untreated. To detect changes in the mitochondrial inner membrane potential, the cells were incubated with 5,5′,6,6′-tetrachloro-1,1′,3,3′-tetraethylbenzimidazolylcarbocyanine iodide (JC-1, Molecular Probes Inc.) for 30 min at 37° C., and were then analyzed using a FACS Calibur. The activation of caspase-3 in cells was examined using the FACS Calibur following incubation with an FITC-labeled caspase 3 inhibitor peptide (FITC-DEVD-FMK, Calbiochem, San Diego, Calif.) for 1 hr at 37° C.

[8] = tested on: Jurkat cells; assay: Activation of caspase 3 by AZT (FITC-DEVD-FMK, flow cytometry); format: cell-based, human; settings: clonal Jurkat cells, 100 μM AZT, 4 days
Protocol: as §3

[9] = Enzymatic activity of tmpk mutants for AZT-MP; format: biochemical, human
[10] = tested on: primary human T cells; assay: Induction of apoptosis by AZT in transduced primary human T cells (annexin V); format: cell-based; settings: 100 μM AZT, 4 days
Protocol: Human T lymphocytes were isolated from PBMNCs contained within heparinized blood obtained from healthy human donors by Ficoll-Hypaque (GE Healthcare) separations. Mouse T cells were prepared from B cell-depleted splenocyte preparations using goat anti-mouse IgG beads (BioMag, Qiagen, Mississauga, ON). T cells were activated by using anti-CD3 and anti-CD28 coated beads (PMID: 12855580) in a ratio of 1:3 (cell:beads) with 20 IU/mL of recombinant human interleukin 2 (R&D Systems, Minneapolis, Minn.) for 3 days. Cells were infected with concentrated virus stocks for 3 h on ice using an indicated MOI in the presence of 8 μg/ml protamine sulfate. Infected cells were then kept in culture for 5 days prior to evaluating gene transfer efficiency. Gene transfer efficiencies were measured by flow cytometry using a monoclonal anti-human CD19-antibody conjugated with phycoerythrin (PE) as described above. Induction of apoptosis following AZT-exposure was evaluated by Annexin V-staining as above.

## Cc1cn([C@H]2C[C@H](N=[N+]=[N-])[C@@H](CO)O2)c(=O)[nH]c1=O [AZT, Zidovudine, reference compound]
[1]; non-transduced Jurkat cells, 100 μM AZT for 36 h
  intracellular ratio of AZT-TP to AZT-MP in non-transduced cells: 0.02
[2]; Homo sapiens, 120 h, LV-tmpk mutant transduced Jurkat cells, AZT 0-100 μM, 5 days, read-out: IC50 of AZT for killing of transduced cells
  IC50: 2 µM
[3]
  AZT sensitivity of transduced cells (in words): dose dependent killing

B1: wild-type tmpk: wild-type human thymidylate kinase overexpressed by LV transduction, comparator (protein, UniProt P23919 2-212, looked up)
Thymidylate kinase: AARRGALIVLEGVDRAGKSTQSRKLVEALCAAGHRAELLRFPERSTEIGKLLSSYLQKKSDVEDHSVHLLFSANRWEQVPLIKEKLSQGVTLVVDRYAFSGVAFTGAKENFSLDWCKQPDVGLPKPDLVLFLQLQLADAAKRGAFGHERYENGAFQERALRCFHQLMKDTTLNWKMVDASKSIEAVHEDIRVLSEDAIRTATEKPLGELWK
[4]
  early apoptotic cell index in response to AZT treatment: 6.2±0.3%
[1]; LV-transduced Jurkat cells, 100 μM AZT for 36 h
  intracellular ratio of AZT-TP to AZT-MP: 0.10
[1]; clonal Jurkat cells, 100 μM AZT 36 h
  conversion of AZT-MP / accumulation of AZT-TP (in words): no significant increases in the accumulation of AZT-TP
[5]; transduced K562 cells in NOD/SCID mice, AZT 2.5 mg/kg for two weeks
  tumor growth under AZT (in words), Example 8/10: no significant reduction in tumor volume
[5]; AZT 2.5 mg/kg for two weeks
  tumor size / final tumor volume: 2000 mm^2
[2]
  cell viability upon addition of AZT (in words), Example 15: limited cell killing
[2]; transduced Jurkat cells, AZT up to 100 μM
  AZT sensitivity / cell killing of transduced cells (in words): non-sensitive to AZT up to 100 μM; also recorded: unaffected by AZT up to 100 μM
[6]; clonal Jurkat cells, 100 μM AZT + 5 μM indirubin-3'-monoxime, 4 days
  apoptotic index with AZT in presence of indirubin-3'-monoxime (in words): No significant increases
[6]; transduced Jurkat cells, indirubin-3'-oxime 5 μM, 100 μM AZT, 2 days
  cells killed by AZT after cell cycle arrest: 2%
[7]
  loss of mitochondrial (inner) membrane potential after AZT treatment (in words): did not demonstrate a similar loss of mitochondrial inner membrane potential
[8]
  activation of caspase 3 by AZT (in words): slight, but significant, increase

B2: F105Y: modified human thymidylate kinase (tmpk), F to Y mutation at amino acid position 105 (SEQ ID NO: 11, 21) (protein, UniProt P23919 2-212, looked up, variant F105Y)
Thymidylate kinase: B1 Thymidylate kinase with F104Y
[4]; clonal Jurkat cells, normalized to no AZT
  fold increase of apoptotic index by AZT-treatment: 9.5±0.8 fold
[4]
  early apoptotic cell index in response to AZT treatment: 40.7±1.7%
[5]; 2×10^7 transduced K562 cells sc in NOD/SCID mice, AZT 2.5 mg/kg/day ip for two weeks, day 14
  tumor growth under daily AZT (in words), Example 15: strongly inhibited; also recorded: suppression of tumor growth
[5]; AZT 2.5 mg/kg for two weeks
  tumor size / final tumor volume: 100-300 mm^2
[2]
  cell viability upon addition of AZT (in words), Example 15: minimally viable
[9]
  enzymatic activity / catalytic conversion compared to wild-type tmpk (in words): substantially increased catalytic conversion of AZT; also recorded: superior enzymatic activity
[10]
  fold increase of apoptotic index by AZT: 4.0±0.3 fold
[6]; clonal Jurkat cells, 100 μM AZT + 5 μM indirubin-3'-monoxime, 4 days, normalized to no AZT
  fold increase of apoptotic index by AZT in presence of indirubin-3'-monoxime: 2.3±0.4 fold
[7]
  loss of mitochondrial (inner) membrane potential after AZT treatment (in words): significant increase
[8]; normalized to no AZT
  fold increase in percentage of activated caspase 3-positive cells by AZT: 4.6±0.1 fold

B3: R200A: modified human tmpk, R to A mutation at amino acid position 200 (SEQ ID NOS: 15 and 16) (protein, UniProt P23919 2-212, looked up, variant R200A)
Thymidylate kinase: B1 Thymidylate kinase with R199A
[9]
  enzymatic activity / catalytic conversion compared to wild-type tmpk (in words): superior enzymatic activity
